Data reported in patent publication US11648277B2, “Combination therapy with gold controlled transgenes” (Chimera Bioengineering, Inc., priority 2019, dated 2023).

Tests used:
CD4+ T-cells = assay: Luciferase-RDE bioluminescence in anti-CD19 CAR T-cells, resting vs Raji co-culture; assay type: cell-based; conditions: for increase in bioluminescence with CAR stimulation: Raji co-culture 24 h vs resting
Source text: Combinations of these inserts/cassettes shown in FIG. 3 were placed in the similar lenti virus constructs. The anti-CD19 CAR cassette and the insert with the luciferase-RDE are transcribed in opposite directions, and the control regions for each are located in between the two insert/cassettes. The control region for the Luciferase-RDE insert and Luciferase-3′-UTR were either a MinP promoter or an NFAT promoter. The control region of the anti-CD19 CAR cassette was the MND promoter, and CD4+ T-cells were transduced with the bicistronic construct.
The transduced T cells were allowed to return to resting state, and then were tested after stimulation as follows. For the ‘no stimulation’ set, transduced T-cells were incubated for 24 h alone in medium. For the ‘Raji co-culture’ set CD19+ Raji B cells were incubated with the transduced T cells for 24 h. At 24 h, the T cells were stained for CD25 and CD69, which are activation markers, and subject to flow cytometry to measure these markers and luciferase expression in the T cells.

T-cells = assay: Removal of microRNA binding sites from an RDE, expression from constructs; assay type: cell-based; conditions: MIR186 micro-RNA sites removed from the 3′-UTR of IL-2
Source text: The AU-rich element from the 3′-UTR of IL-2 has mir-181 and mir 186 microRNA binding sites. Different combinations of the microRNA sites were removed from the 3′-UTR of IL-2. When the MIR186 micro-RNA sites were removed from the 3′-UTR of IL-2 the dynamic range of expression from constructs with this UTR increased 50 fold. The modified IL-2, 3′-UTR replaces CTT in the sequence with GAA and is shown below (the new GAA is underlined in the sequence):
Different combinations of the micro-RNA sites were removed from the 3′UTR of IFNg and tested for increased expression. When the mir125 micro-RNA sites were removed from the 3′-UTR of IFN-γ the expression rate from constructs with this UTR is increased.
Expression of GFP in T-cells, transfected with the RDE-GFP plus the microRNA sites, is compared to expression of GFP in T-cells with the RDE-GFP in which the microRNA sites have been removed, following activation with CD3/CD28 beads for 24 hours. The removal of the microRNA sites increased expression of the GFP by a factor of between 2-5 after 24 hours, relative to the cells with microRNA sites.

B1: RDE3: 3′-UTR of IL-2 modified to remove the mir186 sites (SEQ ID NO: 22) (nucleic acid, listed as Homo sapiens)
DNA: TAATTAAGTGCTTCCCACTTAAAACATATCAGGCCTTCTATTTATTTAAATATTTAAATTTTATATTTATTGTTGAATGTATGGTTTGCTACCTATTGTAACTATTATTCTTAATCTTAAAACTATAAATATGGATCTTTTATGATTGAATTTGTAAGCCCTAGGGGCTCTAAAATGGTTTCACTTATTTATCCCAAAATATTTATTATTATGTTGAATGTTAAATATAGTATCTATGTAGATTGGTTAGTAAAACTATTTAATAAATTTGATAAATATAAA
Question: Which results are given for B1?
Answer: increase in bioluminescence with CAR stimulation (CD4+ T-cells; MinP promoter): 1.4 fold; increase in bioluminescence with CAR stimulation (CD4+ T-cells; NFAT promoter): 1.3 fold; amount of bioluminescence, rank among RDE constructs (CD4+ T-cells; with either promoter): highest amount of bioluminescence; increase of dynamic range of expression (T-cells): 50 fold
